# Results: the supplement of paper PMC10065799, “High-throughput profiling of sequence recognition by tyrosine kinases and SH2 domains using bacterial peptide display” (eLife, 2023)
# Legend:
# MERTK = MERTK (UniProt Q12866); test: phosphorylation enrichment, bacterial display (enrichment ratio); higher = better substrate or ligand; peptides without Tyr show the background
# c-Abl (mouse) = test: as above
# Hck = Hck (UniProt P08631); test: as above
# Fes = Fes (UniProt P07332); test: as above
# EPHB2 = EPHB2 (UniProt P29323); test: as above
# EPHB1 = EPHB1 (UniProt P54762); test: as above
# AncSZ = test: as above
# FGFR3 = FGFR3 (UniProt P22607); test: as above
# FGFR1 = FGFR1 (UniProt P11362); test: as above
# Fer (mouse) = test: as above
# c-Src = test: as above
# Jak2 = Jak2 (UniProt O60674); test: as above
# Fyn = Fyn (UniProt P06241); test: as above
# SHP2-C SH2 = test: SH2 binding enrichment of the phosphorylated peptide, bacterial display (enrichment ratio); higher = better substrate or ligand; peptides without Tyr show the background
# Grb2 SH2 = Grb2 SH2 (UniProt P62993); test: as above
# c-Src SH2 = test: as above
# 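Wherever SH2 binding enrichment of the phosphorylated peptide, bacterial display is given: peptide library displayed on the E. coli surface as eCPX fusions, selected cells deep-sequenced, score is each peptide's frequency after selection divided by its frequency in the input.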
# 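Wherever phosphorylation enrichment, bacterial display is given: 11-residue human phosphosite peptides and single-mutation variants displayed on the E. coli surface, counted by deep sequencing, each peptide's frequency after selection divided by its frequency in the unselected input library; frequency after pTyr selection over input frequency; kinase dosed for 20-30% of maximal phosphorylation in three min.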
# EPHB1, sequence (P54762 whole entry, looked up): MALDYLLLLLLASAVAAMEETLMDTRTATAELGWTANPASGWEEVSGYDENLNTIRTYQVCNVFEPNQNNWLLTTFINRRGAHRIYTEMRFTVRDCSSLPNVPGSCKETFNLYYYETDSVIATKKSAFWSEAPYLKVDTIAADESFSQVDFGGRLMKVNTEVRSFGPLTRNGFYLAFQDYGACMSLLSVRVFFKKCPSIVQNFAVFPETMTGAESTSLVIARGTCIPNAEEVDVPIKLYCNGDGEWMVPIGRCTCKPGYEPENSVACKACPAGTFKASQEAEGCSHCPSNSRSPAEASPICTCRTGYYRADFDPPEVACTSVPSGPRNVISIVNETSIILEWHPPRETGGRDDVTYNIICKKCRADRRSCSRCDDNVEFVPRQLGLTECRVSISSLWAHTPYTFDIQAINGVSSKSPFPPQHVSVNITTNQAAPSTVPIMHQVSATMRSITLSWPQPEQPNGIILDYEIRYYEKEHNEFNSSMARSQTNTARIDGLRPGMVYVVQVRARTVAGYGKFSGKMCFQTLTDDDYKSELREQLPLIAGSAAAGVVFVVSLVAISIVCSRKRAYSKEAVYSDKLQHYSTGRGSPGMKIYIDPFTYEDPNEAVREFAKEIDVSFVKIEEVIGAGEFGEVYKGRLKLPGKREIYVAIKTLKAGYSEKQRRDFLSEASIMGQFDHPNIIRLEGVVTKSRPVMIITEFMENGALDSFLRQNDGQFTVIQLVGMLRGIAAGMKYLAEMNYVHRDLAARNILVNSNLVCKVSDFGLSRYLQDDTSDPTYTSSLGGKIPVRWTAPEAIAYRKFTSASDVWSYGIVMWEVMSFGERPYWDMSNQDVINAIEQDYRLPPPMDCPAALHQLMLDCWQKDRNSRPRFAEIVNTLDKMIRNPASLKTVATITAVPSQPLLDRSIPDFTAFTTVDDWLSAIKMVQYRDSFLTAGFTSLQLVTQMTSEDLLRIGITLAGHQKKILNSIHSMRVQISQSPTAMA
# Grb2 SH2, sequence (P62993 whole entry, looked up): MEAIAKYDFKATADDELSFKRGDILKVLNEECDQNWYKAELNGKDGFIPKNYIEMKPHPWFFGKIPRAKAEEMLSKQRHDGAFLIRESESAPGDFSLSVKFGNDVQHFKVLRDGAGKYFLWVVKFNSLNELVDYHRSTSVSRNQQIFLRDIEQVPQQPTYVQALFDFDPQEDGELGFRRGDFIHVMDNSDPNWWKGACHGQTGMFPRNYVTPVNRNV
# EPHB2, sequence (P29323 whole entry, looked up): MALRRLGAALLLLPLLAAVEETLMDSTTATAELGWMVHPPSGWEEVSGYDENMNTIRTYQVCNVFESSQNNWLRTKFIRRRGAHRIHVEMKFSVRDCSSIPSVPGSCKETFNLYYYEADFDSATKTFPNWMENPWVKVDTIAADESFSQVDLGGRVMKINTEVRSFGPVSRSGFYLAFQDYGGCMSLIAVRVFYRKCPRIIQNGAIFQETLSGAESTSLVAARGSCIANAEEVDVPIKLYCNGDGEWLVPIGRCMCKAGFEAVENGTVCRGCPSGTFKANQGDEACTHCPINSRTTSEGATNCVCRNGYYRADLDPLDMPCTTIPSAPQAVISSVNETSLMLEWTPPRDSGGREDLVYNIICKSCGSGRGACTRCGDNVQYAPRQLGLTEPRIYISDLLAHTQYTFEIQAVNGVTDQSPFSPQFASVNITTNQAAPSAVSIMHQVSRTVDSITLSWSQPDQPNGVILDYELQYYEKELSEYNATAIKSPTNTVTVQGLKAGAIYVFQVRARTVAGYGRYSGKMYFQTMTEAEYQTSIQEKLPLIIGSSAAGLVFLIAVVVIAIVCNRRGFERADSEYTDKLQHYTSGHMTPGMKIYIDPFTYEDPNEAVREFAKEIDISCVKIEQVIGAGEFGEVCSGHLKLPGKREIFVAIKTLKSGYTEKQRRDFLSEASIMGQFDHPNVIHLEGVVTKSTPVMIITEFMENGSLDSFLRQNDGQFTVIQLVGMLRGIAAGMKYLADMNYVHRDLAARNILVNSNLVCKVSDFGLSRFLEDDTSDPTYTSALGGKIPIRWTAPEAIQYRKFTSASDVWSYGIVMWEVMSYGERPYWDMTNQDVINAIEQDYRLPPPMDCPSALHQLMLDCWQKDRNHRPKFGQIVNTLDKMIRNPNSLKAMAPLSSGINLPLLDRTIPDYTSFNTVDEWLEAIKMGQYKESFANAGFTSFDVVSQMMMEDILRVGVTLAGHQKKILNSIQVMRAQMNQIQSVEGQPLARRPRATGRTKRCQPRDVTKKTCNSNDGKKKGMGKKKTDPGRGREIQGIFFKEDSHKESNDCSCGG
# Fyn, sequence (P06241 whole entry, looked up): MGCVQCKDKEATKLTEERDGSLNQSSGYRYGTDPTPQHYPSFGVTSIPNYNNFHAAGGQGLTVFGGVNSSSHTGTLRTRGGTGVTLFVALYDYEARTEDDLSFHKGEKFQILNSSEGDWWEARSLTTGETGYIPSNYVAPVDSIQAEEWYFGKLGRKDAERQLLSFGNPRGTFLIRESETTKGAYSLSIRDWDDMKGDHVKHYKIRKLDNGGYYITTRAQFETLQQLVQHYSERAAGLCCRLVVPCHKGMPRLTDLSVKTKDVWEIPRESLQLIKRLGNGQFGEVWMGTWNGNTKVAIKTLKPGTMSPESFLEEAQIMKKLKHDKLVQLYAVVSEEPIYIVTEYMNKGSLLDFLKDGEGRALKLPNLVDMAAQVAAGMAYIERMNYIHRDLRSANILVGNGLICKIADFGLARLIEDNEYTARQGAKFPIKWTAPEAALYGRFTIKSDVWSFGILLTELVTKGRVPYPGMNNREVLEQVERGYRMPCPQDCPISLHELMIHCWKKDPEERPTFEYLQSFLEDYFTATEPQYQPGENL
# MERTK, sequence (Q12866 whole entry, looked up): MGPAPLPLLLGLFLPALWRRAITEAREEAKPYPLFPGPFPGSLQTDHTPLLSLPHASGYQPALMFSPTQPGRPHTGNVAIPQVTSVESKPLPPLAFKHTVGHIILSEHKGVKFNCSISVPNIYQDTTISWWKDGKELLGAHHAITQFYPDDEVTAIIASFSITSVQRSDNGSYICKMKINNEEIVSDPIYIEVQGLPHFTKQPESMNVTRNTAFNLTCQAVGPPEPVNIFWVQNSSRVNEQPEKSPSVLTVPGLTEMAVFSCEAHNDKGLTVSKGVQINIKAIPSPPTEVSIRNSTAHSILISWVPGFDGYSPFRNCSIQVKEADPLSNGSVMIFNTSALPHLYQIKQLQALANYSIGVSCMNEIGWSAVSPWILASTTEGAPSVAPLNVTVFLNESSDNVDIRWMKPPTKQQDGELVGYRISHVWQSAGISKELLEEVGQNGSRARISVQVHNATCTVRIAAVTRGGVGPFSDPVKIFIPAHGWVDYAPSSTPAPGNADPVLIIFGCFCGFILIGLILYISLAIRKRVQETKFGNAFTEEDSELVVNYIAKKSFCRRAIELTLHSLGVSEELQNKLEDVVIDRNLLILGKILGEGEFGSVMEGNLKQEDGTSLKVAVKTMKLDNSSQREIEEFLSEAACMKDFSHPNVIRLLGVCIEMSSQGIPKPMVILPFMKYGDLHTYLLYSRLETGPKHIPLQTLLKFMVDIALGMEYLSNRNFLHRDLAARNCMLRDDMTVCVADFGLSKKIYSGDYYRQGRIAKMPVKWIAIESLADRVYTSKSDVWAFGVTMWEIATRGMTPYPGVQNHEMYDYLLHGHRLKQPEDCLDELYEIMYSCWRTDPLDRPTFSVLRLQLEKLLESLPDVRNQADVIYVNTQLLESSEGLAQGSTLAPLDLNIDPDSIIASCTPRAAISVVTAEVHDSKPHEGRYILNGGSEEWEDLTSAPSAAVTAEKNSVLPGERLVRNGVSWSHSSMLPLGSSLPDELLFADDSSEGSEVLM
# Fes, sequence (P07332 whole entry, looked up): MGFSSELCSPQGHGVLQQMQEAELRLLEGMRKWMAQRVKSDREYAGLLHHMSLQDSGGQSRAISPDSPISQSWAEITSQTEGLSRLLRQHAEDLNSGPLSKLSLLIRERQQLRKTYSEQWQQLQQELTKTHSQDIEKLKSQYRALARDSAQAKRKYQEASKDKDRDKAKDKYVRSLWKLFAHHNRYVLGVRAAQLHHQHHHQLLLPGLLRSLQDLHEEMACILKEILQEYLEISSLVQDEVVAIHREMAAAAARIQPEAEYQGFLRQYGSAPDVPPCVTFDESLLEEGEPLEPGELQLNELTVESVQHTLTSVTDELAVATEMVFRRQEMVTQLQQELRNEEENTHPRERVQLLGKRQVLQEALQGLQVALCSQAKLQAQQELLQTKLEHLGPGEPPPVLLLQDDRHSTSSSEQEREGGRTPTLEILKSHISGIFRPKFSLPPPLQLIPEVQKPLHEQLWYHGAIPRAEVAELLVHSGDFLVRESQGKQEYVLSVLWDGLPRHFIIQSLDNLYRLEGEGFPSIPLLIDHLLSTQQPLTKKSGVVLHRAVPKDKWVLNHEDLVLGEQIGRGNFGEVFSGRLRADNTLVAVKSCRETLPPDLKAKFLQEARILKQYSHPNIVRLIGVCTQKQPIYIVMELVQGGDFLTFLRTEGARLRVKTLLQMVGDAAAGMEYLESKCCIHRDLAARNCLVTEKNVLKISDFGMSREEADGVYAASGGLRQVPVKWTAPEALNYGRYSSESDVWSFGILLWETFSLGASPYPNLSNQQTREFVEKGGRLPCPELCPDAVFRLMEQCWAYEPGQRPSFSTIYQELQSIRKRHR
sequence,measurement,setting,value
IPGRYYETGSI [PAX2_Y73_L69P],phosphorylation enrichment,MERTK,0.405
same,phosphorylation enrichment,c-Abl (mouse),0.616
same,phosphorylation enrichment,Hck,0.428
same,phosphorylation enrichment,Fes,0.646
same,phosphorylation enrichment,EPHB2,0.595
same,phosphorylation enrichment,EPHB1,0.451
same,phosphorylation enrichment,AncSZ,0.505
same,phosphorylation enrichment,FGFR3,0.498
same,phosphorylation enrichment,FGFR1,0.492
same,phosphorylation enrichment,Fer (mouse),0.331
same,phosphorylation enrichment,c-Src,0.437
same,phosphorylation enrichment,Jak2,0.573
same,phosphorylation enrichment,Fyn,0.454
same,SH2 binding enrichment,SHP2-C SH2,0.743
same,SH2 binding enrichment,Grb2 SH2,0.777
same,SH2 binding enrichment,c-Src SH2,1.67
YEDALYTVLHR [UNC13D_Y61],phosphorylation enrichment,MERTK,9.59
same,phosphorylation enrichment,c-Abl (mouse),11.5
same,phosphorylation enrichment,Hck,9.13
same,phosphorylation enrichment,Fes,2.06
same,phosphorylation enrichment,EPHB2,15.9
same,phosphorylation enrichment,EPHB1,16.6
same,phosphorylation enrichment,AncSZ,3.84
same,phosphorylation enrichment,FGFR3,3.1
same,phosphorylation enrichment,FGFR1,3.68
same,phosphorylation enrichment,Fer (mouse),12.9
same,phosphorylation enrichment,c-Src,7.21
same,phosphorylation enrichment,Jak2,1.7
same,phosphorylation enrichment,Fyn,8.38
same,SH2 binding enrichment,SHP2-C SH2,0.46
same,SH2 binding enrichment,Grb2 SH2,0.86
same,SH2 binding enrichment,c-Src SH2,2.38
PFRSIYFSSPK [MPG_Y75_YF],phosphorylation enrichment,MERTK,0.463
same,phosphorylation enrichment,c-Abl (mouse),0.398
same,phosphorylation enrichment,Hck,1.11
same,phosphorylation enrichment,Fes,0.666
same,phosphorylation enrichment,EPHB2,0.571
same,phosphorylation enrichment,EPHB1,0.382
same,phosphorylation enrichment,AncSZ,0.851
same,phosphorylation enrichment,FGFR3,0.809
same,phosphorylation enrichment,FGFR1,0.599
same,phosphorylation enrichment,Fer (mouse),0.595
same,phosphorylation enrichment,c-Src,0.669
same,phosphorylation enrichment,Jak2,0.553
same,phosphorylation enrichment,Fyn,0.658
same,SH2 binding enrichment,SHP2-C SH2,0.565
same,SH2 binding enrichment,Grb2 SH2,0.843
same,SH2 binding enrichment,c-Src SH2,0.447
NVVHEYSSELE [FGB_Y172_N170H],phosphorylation enrichment,MERTK,0.473
same,phosphorylation enrichment,c-Abl (mouse),0.987
same,phosphorylation enrichment,Hck,0.481
same,phosphorylation enrichment,Fes,1.1
same,phosphorylation enrichment,EPHB2,0.656
same,phosphorylation enrichment,EPHB1,0.544
same,phosphorylation enrichment,AncSZ,1.02
same,phosphorylation enrichment,FGFR3,0.705
same,phosphorylation enrichment,FGFR1,0.472
same,phosphorylation enrichment,Fer (mouse),0.519
same,phosphorylation enrichment,c-Src,0.649
same,phosphorylation enrichment,Jak2,1.02
same,phosphorylation enrichment,Fyn,0.436
same,SH2 binding enrichment,SHP2-C SH2,0.637
same,SH2 binding enrichment,Grb2 SH2,0.908
same,SH2 binding enrichment,c-Src SH2,1.48
PRRRFYVVACD [RNASE3_Y134_G130R],phosphorylation enrichment,MERTK,0.73
same,phosphorylation enrichment,c-Abl (mouse),0.715
same,phosphorylation enrichment,Hck,0.705
same,phosphorylation enrichment,Fes,0.667
same,phosphorylation enrichment,EPHB2,0.701
same,phosphorylation enrichment,EPHB1,0.543
same,phosphorylation enrichment,AncSZ,0.597
same,phosphorylation enrichment,FGFR3,0.656
same,phosphorylation enrichment,FGFR1,0.614
same,phosphorylation enrichment,Fer (mouse),0.433
same,phosphorylation enrichment,c-Src,0.545
same,phosphorylation enrichment,Jak2,0.733
same,phosphorylation enrichment,Fyn,0.759
same,SH2 binding enrichment,SHP2-C SH2,0.486
same,SH2 binding enrichment,Grb2 SH2,0.592
same,SH2 binding enrichment,c-Src SH2,0.47
RGKDSYETSQL [SPP1_Y225],phosphorylation enrichment,MERTK,0.5
same,phosphorylation enrichment,c-Abl (mouse),0.313
same,phosphorylation enrichment,Hck,0.412
same,phosphorylation enrichment,Fes,0.913
same,phosphorylation enrichment,EPHB2,0.529
same,phosphorylation enrichment,EPHB1,0.552
same,phosphorylation enrichment,AncSZ,0.681
same,phosphorylation enrichment,FGFR3,0.697
same,phosphorylation enrichment,FGFR1,0.632
same,phosphorylation enrichment,Fer (mouse),0.594
same,phosphorylation enrichment,c-Src,0.449
same,phosphorylation enrichment,Jak2,0.643
same,phosphorylation enrichment,Fyn,0.484
same,SH2 binding enrichment,SHP2-C SH2,0.381
same,SH2 binding enrichment,Grb2 SH2,0.698
same,SH2 binding enrichment,c-Src SH2,0.482
KDQGGYTMHQD [MAPT_Y29],phosphorylation enrichment,MERTK,0.413
same,phosphorylation enrichment,c-Abl (mouse),0.569
same,phosphorylation enrichment,Hck,0.484
same,phosphorylation enrichment,Fes,0.793
same,phosphorylation enrichment,EPHB2,0.456
same,phosphorylation enrichment,EPHB1,0.4
same,phosphorylation enrichment,AncSZ,0.754
same,phosphorylation enrichment,FGFR3,0.465
same,phosphorylation enrichment,FGFR1,0.512
same,phosphorylation enrichment,Fer (mouse),0.399
same,phosphorylation enrichment,c-Src,0.385
same,phosphorylation enrichment,Jak2,0.542
same,phosphorylation enrichment,Fyn,0.404
same,SH2 binding enrichment,SHP2-C SH2,0.349
same,SH2 binding enrichment,Grb2 SH2,0.722
same,SH2 binding enrichment,c-Src SH2,0.451
IGKAGYTDKVV [ENO1_Y236],phosphorylation enrichment,MERTK,0.305
same,phosphorylation enrichment,c-Abl (mouse),0.481
same,phosphorylation enrichment,Hck,0.388
same,phosphorylation enrichment,Fes,0.642
same,phosphorylation enrichment,EPHB2,0.395
same,phosphorylation enrichment,EPHB1,0.398
same,phosphorylation enrichment,AncSZ,0.531
same,phosphorylation enrichment,FGFR3,0.508
same,phosphorylation enrichment,FGFR1,0.456
same,phosphorylation enrichment,Fer (mouse),0.365
same,phosphorylation enrichment,c-Src,0.335
same,phosphorylation enrichment,Jak2,0.632
same,phosphorylation enrichment,Fyn,0.359
same,SH2 binding enrichment,SHP2-C SH2,0.606
same,SH2 binding enrichment,Grb2 SH2,0.757
same,SH2 binding enrichment,c-Src SH2,0.371
HQPGEYIFHAE [FLT3_Y416],phosphorylation enrichment,MERTK,0.74
same,phosphorylation enrichment,c-Abl (mouse),1.11
same,phosphorylation enrichment,Hck,1.21
same,phosphorylation enrichment,Fes,1.29
same,phosphorylation enrichment,EPHB2,1.12
same,phosphorylation enrichment,EPHB1,0.887
same,phosphorylation enrichment,AncSZ,1.77
same,phosphorylation enrichment,FGFR3,1.28
same,phosphorylation enrichment,FGFR1,0.819
same,phosphorylation enrichment,Fer (mouse),0.795
same,phosphorylation enrichment,c-Src,0.852
same,phosphorylation enrichment,Jak2,1.29
same,phosphorylation enrichment,Fyn,0.915
same,SH2 binding enrichment,SHP2-C SH2,0.743
same,SH2 binding enrichment,Grb2 SH2,0.668
same,SH2 binding enrichment,c-Src SH2,0.445
LNPLFYSLRNK [OR5R1_Y290_I289F],phosphorylation enrichment,MERTK,0.395
same,phosphorylation enrichment,c-Abl (mouse),0.363
same,phosphorylation enrichment,Hck,0.475
same,phosphorylation enrichment,Fes,0.773
same,phosphorylation enrichment,EPHB2,0.537
same,phosphorylation enrichment,EPHB1,0.396
same,phosphorylation enrichment,AncSZ,0.552
same,phosphorylation enrichment,FGFR3,0.737
same,phosphorylation enrichment,FGFR1,0.481
same,phosphorylation enrichment,Fer (mouse),0.75
same,phosphorylation enrichment,c-Src,0.348
same,phosphorylation enrichment,Jak2,0.468
same,phosphorylation enrichment,Fyn,0.511
same,SH2 binding enrichment,SHP2-C SH2,2.19
same,SH2 binding enrichment,Grb2 SH2,1.5
same,SH2 binding enrichment,c-Src SH2,0.74
YCRHNYGVVES [HLA-DRB1_Y112],phosphorylation enrichment,MERTK,0.592
same,phosphorylation enrichment,c-Abl (mouse),0.675
same,phosphorylation enrichment,Hck,0.458
same,phosphorylation enrichment,Fes,0.798
same,phosphorylation enrichment,EPHB2,2.87
same,phosphorylation enrichment,EPHB1,1.52
same,phosphorylation enrichment,AncSZ,0.557
same,phosphorylation enrichment,FGFR3,0.527
same,phosphorylation enrichment,FGFR1,0.568
same,phosphorylation enrichment,Fer (mouse),0.41
same,phosphorylation enrichment,c-Src,0.484
same,phosphorylation enrichment,Jak2,0.681
same,phosphorylation enrichment,Fyn,0.385
same,SH2 binding enrichment,SHP2-C SH2,0.927
same,SH2 binding enrichment,Grb2 SH2,1.2
same,SH2 binding enrichment,c-Src SH2,1.64
TRDTDYQMTKR [ADA_Y308_L304R],phosphorylation enrichment,MERTK,0.344
same,phosphorylation enrichment,c-Abl (mouse),0.501
same,phosphorylation enrichment,Hck,0.373
same,phosphorylation enrichment,Fes,0.646
same,phosphorylation enrichment,EPHB2,0.446
same,phosphorylation enrichment,EPHB1,0.383
same,phosphorylation enrichment,AncSZ,0.639
same,phosphorylation enrichment,FGFR3,0.7
same,phosphorylation enrichment,FGFR1,0.394
same,phosphorylation enrichment,Fer (mouse),0.359
same,phosphorylation enrichment,c-Src,0.31
same,phosphorylation enrichment,Jak2,0.525
same,phosphorylation enrichment,Fyn,0.377
same,SH2 binding enrichment,SHP2-C SH2,0.447
same,SH2 binding enrichment,Grb2 SH2,0.821
same,SH2 binding enrichment,c-Src SH2,0.544
LRIAVYHEILI [CREBBP_Y1450_T1447I],phosphorylation enrichment,MERTK,1.62
same,phosphorylation enrichment,c-Abl (mouse),2.93
same,phosphorylation enrichment,Hck,2.74
same,phosphorylation enrichment,Fes,4.93
same,phosphorylation enrichment,EPHB2,3.56
same,phosphorylation enrichment,EPHB1,5.55
same,phosphorylation enrichment,AncSZ,5.75
same,phosphorylation enrichment,FGFR3,6.95
same,phosphorylation enrichment,FGFR1,5.94
same,phosphorylation enrichment,Fer (mouse),2.45
same,phosphorylation enrichment,c-Src,2.29
same,phosphorylation enrichment,Jak2,4.19
same,phosphorylation enrichment,Fyn,3.37
same,SH2 binding enrichment,SHP2-C SH2,0.798
same,SH2 binding enrichment,Grb2 SH2,1.1
same,SH2 binding enrichment,c-Src SH2,0.954
SNMPTYSGHFT [GRIN2A_Y1224],phosphorylation enrichment,MERTK,0.74
same,phosphorylation enrichment,c-Abl (mouse),0.457
same,phosphorylation enrichment,Hck,1.47
same,phosphorylation enrichment,Fes,0.557
same,phosphorylation enrichment,EPHB2,0.602
same,phosphorylation enrichment,EPHB1,0.636
same,phosphorylation enrichment,AncSZ,0.529
same,phosphorylation enrichment,FGFR3,0.428
same,phosphorylation enrichment,FGFR1,0.354
same,phosphorylation enrichment,Fer (mouse),3.39
same,phosphorylation enrichment,c-Src,2.04
same,phosphorylation enrichment,Jak2,0.653
same,phosphorylation enrichment,Fyn,1.71
same,SH2 binding enrichment,SHP2-C SH2,0.88
same,SH2 binding enrichment,Grb2 SH2,0.68
same,SH2 binding enrichment,c-Src SH2,0.414
GYEEAYSVFKK [PAFAH1B1_Y28],phosphorylation enrichment,MERTK,0.654
same,phosphorylation enrichment,c-Abl (mouse),1.96
same,phosphorylation enrichment,Hck,4.07
same,phosphorylation enrichment,Fes,0.947
same,phosphorylation enrichment,EPHB2,0.605
same,phosphorylation enrichment,EPHB1,0.498
same,phosphorylation enrichment,AncSZ,1.35
same,phosphorylation enrichment,FGFR3,0.681
same,phosphorylation enrichment,FGFR1,0.491
same,phosphorylation enrichment,Fer (mouse),0.339
same,phosphorylation enrichment,c-Src,4.68
same,phosphorylation enrichment,Jak2,0.754
same,phosphorylation enrichment,Fyn,2.37
same,SH2 binding enrichment,SHP2-C SH2,1.25
same,SH2 binding enrichment,Grb2 SH2,0.831
same,SH2 binding enrichment,c-Src SH2,2.54
QEGPEYWDQNT [HLA-A_Y83_E87N],phosphorylation enrichment,MERTK,0.625
same,phosphorylation enrichment,c-Abl (mouse),1.25
same,phosphorylation enrichment,Hck,0.632
same,phosphorylation enrichment,Fes,1.42
same,phosphorylation enrichment,EPHB2,0.719
same,phosphorylation enrichment,EPHB1,0.898
same,phosphorylation enrichment,AncSZ,1.5
same,phosphorylation enrichment,FGFR3,1.14
same,phosphorylation enrichment,FGFR1,0.711
same,phosphorylation enrichment,Fer (mouse),0.802
same,phosphorylation enrichment,c-Src,0.546
same,phosphorylation enrichment,Jak2,1.36
same,phosphorylation enrichment,Fyn,0.6
same,SH2 binding enrichment,SHP2-C SH2,0.702
same,SH2 binding enrichment,Grb2 SH2,0.834
same,SH2 binding enrichment,c-Src SH2,0.419
GIVKAYFVHAR [AIPL1_Y267_R270H_YF],phosphorylation enrichment,MERTK,0.448
same,phosphorylation enrichment,c-Abl (mouse),0.602
same,phosphorylation enrichment,Hck,0.461
same,phosphorylation enrichment,Fes,0.872
same,phosphorylation enrichment,EPHB2,0.494
same,phosphorylation enrichment,EPHB1,0.422
same,phosphorylation enrichment,AncSZ,0.795
same,phosphorylation enrichment,FGFR3,0.605
same,phosphorylation enrichment,FGFR1,0.388
same,phosphorylation enrichment,Fer (mouse),0.481
same,phosphorylation enrichment,c-Src,0.428
same,phosphorylation enrichment,Jak2,0.73
same,phosphorylation enrichment,Fyn,0.449
same,SH2 binding enrichment,SHP2-C SH2,1.71
same,SH2 binding enrichment,Grb2 SH2,1.3
same,SH2 binding enrichment,c-Src SH2,1.01
